Test results reported in JP2001333780A (dated 2001).
Blank lines part the entries; values can stand above or below the binder they belong to.

Target: T1, 上皮細胞増殖因子レセプター(EGFR) (UniProt P00533 25-1210, limits assumed)
T1 construct: whole, on cells; The antigen is formalin-fixed A431 cells; also called EGF レセプター; EGFレセプター
Assay: competition ELISA with HRP-labelled B4G7 on formalin-fixed A431 cells

- binding result: binds
B1: CaC 型 ヒト型一本鎖抗体 (scFv)
scFv: MGHHHHHHQVQLVQSGAEVKKPGASVKVSCKASGFNIKDTLMHWVRQAPGQGLEWMGWIDPEDGNTKYVRKFQGRVTMTRDTSTSTVYMELSSLRSEDTAVYYCARGGSYGNWAYWGQGTTVTVSSGGGGSGGGGSGGGGSDIQMTQSPSSLSASVGDRVTITCRTSENIYSYFAWYQQKSGKAPKLLIYNAKTLAEGVPSRFSGSGSGTEFTLTISSLQPEDFATYFCQHHYGSLHTFGGGTTVDIKHHHHHHGGGS
notes: Humanised scFv with VH of Ca type and VL of C type

- 抗体一価あたりの結合力 (relative to B4G7抗体): ~0.33 fold of B4G7 antibody, per antibody valence
B2: 一本鎖scBH抗体 (scFv)
chain: QVQLQQSGAELVRPGASVKLSCTASGFNIKDTLMHWVKQRPEQGLEWIGWIDPEDGNTKYVRKFQGKATITADTSSNTAYLQVSSLTSEDTAIYYCVRGGSYGNWAYWGQGTTVTVSSDIELTQSPASLSASVGETVTITCRTSENIYSYFAWYQQKQGKSPHLLVYNAKTLAEGVPSRFSGSGSGTQFSLKINSLQPEDFGIYFCQHHYGSLHTFGGGTKLEIK
